Measurements: patent US12156889B2, “Methods of administering mesenchymal stem cells activated by cytokines for enhancing immunosuppression” (Rutgers, The State University of New Jersey, priority 2012, dated 2024)

Experiments:
[1] = tested on: T cell hybridoma A1.1 cells; test: T cell hybridoma A1.1 proliferation in co-culture with MSCs; assay type: cell-based, mouse
Experimental: FIG. 7. […] MSC cells and T-cell hybridoma A1.1 cell line were co-cultured at a ratio of 1:20. The co-cultures were supplemented with IFNγ+ TNF α, or IL-17A+IFNγ+TNFα. Cell proliferation was measured by the cell density indicated by O.D. 570 nm.
FIGS. 9A, 9B, 9C, 9D, 9E, 9F and 9G. (FIG. 9A). Cloned MSCs were first treated with the indicated combinations of recombinant cytokines IFNγ, TNFα, IL-17A (2 ng/ml each) for 12 hr, then cocultured with CD4^+ T cell blasts at a 1:20 ratio (MSC:T cells), and proliferation was assessed by 3H-thymidine incorporation after an additional 12 hr. (FIG. 9B). The mRNA expression of IL-17 receptor family members in MSCs or Raw 264.7 (Macrophages) were examined by RT-PCR. NC: No RT. (FIG. 9C). Surface expression of IL-17RA was detected by immunofluoresence or flow cytometry in cloned MSCs. (FIGS. 9D and 9E). MSCs were first treated with IFNγ and TNFα with or without IL-17A (10 ng/ml), IFNγ and TNFα were supplemented at different cytokine concentrations, for 12 hr, and then cocultured with CD4^+ T cell blasts (FIG. 9D) or T cell hybridoma A1.1 cells (FIG. 9E) at a ratio of 1:20 for 12 hr. T cell proliferation was measured by 3H-Tdr incorporation. (FIG. 9F). MSCs were first treated with IFNγ and TNFα (2 ng/ml) with graded concentrations of IL-17A, for 12 hr, and then cocultured with T cell hybridoma A1.1 cells at a ratio of 1:10 for 12 hr. T cell proliferation was measured by 3H-thymidine incorporation. (FIG. 9G). MSCs were cocultured with fresh C57BL/6 splenocytes plus anti-CD3, anti-CD28, and antibodies against IL-17A, at a 1:20 or 1:40 ratio (MSCs:splenocytes), for 48 hr, and then cell proliferation was assessed by 3H-thymidine incorporation. Proliferation values represent means±SEM of three wells from a representative of three experiments.
FIGS. 11A, 11B, 11C and 11D. (FIG. 11A) MSCs with Act1 knockdown or control were treated with IL-17A for different time and the phosphorylation levels of IκBα, ERK, p65, JNK were assessed by Western Blot. (FIG. 11B) MSCs with Act1 knockdown or control were treated with IFNγ and TNFα with or without IL-17A (all cytokines supplemented at 5 ng/ml) the protein levels of iNOS and Act1 were assessed by Western Blot. (FIG. 11C) MSCs (Act1 knockdown or control) were treated with different cytokines 12 hr, and iNOS expression was measured by quantitative RT-PCR. mRNA expression values are means±SEM. (FIG. 11D) MSCs (Act1 knockdown or control) were first treated with IFNγ and TNFα with or without IL-17A (all cytokines supplemented at 5 ng/ml) for 12 hr, and then cocultured with T cell hybridoma A1.1 cells at a ratio of 1:10 for 12 hr. T cell proliferation was measured by 3H-Tdr incorporation, taking the proliferation level of A1.1 alone as 100%.
FIGS. 14A and 14B. (FIG. 14A). WT MSCs or auf1^−/− MSCs were first treated with IFNγ and TNFα with or without IL-17A (all cytokines supplemented at 5 ng/ml) for 12 hr, and then cocultured with T cell hybridoma A1.1 cells at a ratio of 1:10 for 12 hr. T cell proliferation was measured by 3H-Tdr incorporation, taking the proliferation level of A1.1 alone as 100%. (FIG. 14B). WT MSCs or auf1^−/− MSCs were first treated with IFNγ and TNFα with or without IL-17A (10 ng/ml), IFNγ and TNFα were supplemented at different cytokine concentrations, for 12 hr, and then cocultured with T cell hybridoma A1.1 cells at a ratio of 1:10 for 12 hr. T cell proliferation was measured by 3H-Tdr incorporation, taking the proliferation level of A1.1 alone as 100%. […]

[2] = tested on: MSCs; test: Messenger RNA decay assay in MSCs after actinomycin D; assay type: cell-based, mouse
Experimental: FIGS. 8A and 8B. IL-17A prevented the decay of iNOS mRNA, (FIG. 8A) the iNOS mRNA stability was measured at different time points after actinomycin D treatment in IFNγ+TNFα and IFNγ+TNFα+IL-17A treatment groups. (FIG. 8B) iNOS expression enhancing effect of IL-17A at different times after IFNγ and TNFα treatment.
FIGS. 13A and 13B. Wild-type (FIG. 13A) or […] (FIG. 13B) were treated with IFNγ and TNFα, with or without IL-17A (all cytokines supplemented at 10 ng/ml), for 6 hr, and then actinomycin D (5 μg/ml) was added to stop transcription. At the indicated time points, mRNA levels were assayed by quantitative RT-PCR, taking the expression level at the time of actinomycin.D addition as 100%. mRNA expression values are means±SD of three wells from a representative of three independent experiments.
Messenger RNA decay assays-Messenger RNA decay assays were performed essentially. MSCs were incubated with cytokine combinations for 6 hr. Actinomycin D (Act.D) was added into the medium at a final concentration of 5 μg/ml to stop transcription. At various time points after addition of Act.D, cells were harvested for extraction of total RNA.
Levels of iNOS, CXCL1, CCL2, CXCL10 and IL-6 mRNAs were measured at each time point by quantitative RT-PCR and normalized to levels of β-actin mRNA. Percentages of mRNA remaining for each time point were plotted versus time after Act.D addition. First order decay constants, k, were determined by nonlinear regression. The associated mRNA half-lives, t1/2, were calculated with the equation t1/2=ln2/k.

B1: IL-17A: recombinant mouse interleukin 17A (protein)
chain: AAIIPQSSACPNTEAKDFLQNVKVNLKVFNSLGAKVSSRRPSDYLNRSTSPWTLHRNEDPDRYPSVIWEAQCRHQRCVNAEGKLDHHMNSVLIQQEILVLKREPESCPFTFRVEKMLVGVGCTCVASIVRQAA
enhancement of immunosuppression in absence of Act1 ([1]; 5 ng/ml, A1.1 1:10): not seen | IL-17A concentration sufficient to elicit a dramatic decrease in T cell proliferation ([1]; IFNγ and TNFα 2 ng/ml each, 12 hr, A1.1 1:10): 0.5 ng/mL | T-cell proliferation in MSC-T cell co-culture ([1]; MSC:A1.1 1:20, O.D. 570 nm): enhanced the suppression | immunosuppressive activity of wild-type MSCs ([1]; with IFNγ+TNFα, A1.1 1:10): increased the immunosuppressive activity | immunosuppressive effect of auf1−/− MSCs ([1]; with IFNγ+TNFα, A1.1 1:10): did not further enhance | half-lives of iNOS and IL-6 mRNAs in AUF1 knockout MSCs ([2]; added to IFNγ+TNFα): no effect | stabilization of CXCL1 mRNA in AUF1 knockout MSCs ([2]; added to IFNγ+TNFα): at least twofold | stabilization of iNOS, IL-6, and CXCL1 mRNAs in wild-type MSCs ([2]; added to IFNγ+TNFα): twofold stabilization | iNOS mRNA stability ([2]; supplement to IFNγ+TNFα, within the time points tested): completely protected
